Assay results from US20220064302A1 (GIGAGEN, published 2022).

Legend:
[1] = biological target: T1, human PD-1 (soluble PD-1 protein, R&D Systems) (human, UniProt Q15116 25-170, limits assumed); experiment: BLI, mAb on AHC biosensor, PD-1 as analyte
T1 construct: the kinetics paragraphs say only 'PD-1' / 'antigen'; also called hPD-1; soluble PD-1 immunogen
Protocol: The binding specificity and affinity of each full-length antibody towards PD-1 were determined using BLI and/or SPR. […] Anti-cyno PD-1 affinity was measured using BLI.
(§1) For BLI, antibodies were loaded onto an Anti-Human IgG Fc (AHC) biosensor using the Octet Red96 system (ForteBio). Loaded biosensors were dipped into antigen dilutions beginning at 300 nM, with 6 serial dilutions at 1:3. Kinetic analysis was performed using a 1:1 binding model and global fitting.

[2] = biological target: T1, human PD-1 (soluble PD-1 protein, R&D …); experiment: BLI (ForteBio), mAb on AHC biosensor, PD-1 as analyte
Protocol: as §1

[3] = biological target: PD-1 expressed on cells (human, UniProt Q15116 25-288); experiment: cell-based or functional assay
Sequence of PD-1 expressed on cells (Q15116 25-288 limits assumed): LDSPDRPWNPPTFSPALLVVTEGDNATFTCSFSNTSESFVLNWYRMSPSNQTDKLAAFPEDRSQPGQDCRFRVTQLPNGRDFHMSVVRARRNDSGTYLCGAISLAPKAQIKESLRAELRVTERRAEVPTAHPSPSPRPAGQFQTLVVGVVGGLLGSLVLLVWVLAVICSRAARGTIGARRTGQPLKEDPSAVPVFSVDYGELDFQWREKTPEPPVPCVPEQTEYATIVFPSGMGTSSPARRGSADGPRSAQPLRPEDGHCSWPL

T1 sequence (Q15116 25-170 limits assumed): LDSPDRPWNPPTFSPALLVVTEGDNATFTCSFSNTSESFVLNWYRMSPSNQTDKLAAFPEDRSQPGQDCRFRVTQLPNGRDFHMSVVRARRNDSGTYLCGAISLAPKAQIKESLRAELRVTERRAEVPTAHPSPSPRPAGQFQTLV

Row | Binder | Kd [1] [nM] | Kd [2] [nM] | koff [2] [s⁻¹] | kon [2] [M⁻¹ s⁻¹] | PD-1/PD-L1 blockage (IC50, µg/ml) [3] [µg/mL]
1 | A22 (antibody, V domains shown, Tested as full-length mAb expressed in CHO cells; also called antibody 22; L22H22) VH: QVQLVESGGGVVQPGRSLRLSCAASGFTFSNYGMHWVRQAPGKGLEWVAVIWYDGSNKYYADSVKGRFTISRDNSKNTLYLQMNSLRAEDTAVYYCARLYYYDSSGYYPDAFDIWGQGTMVTVSS VL: DIQMTQSPSSLSASVGDRVTITCRASQGIRNDLGWYQQKPGKAPKRLIYAASSLQSGVPSRFSGSGSGTEFTLTISSLQPEDFATYYCLQHNSYPFTFGPGTKVEIK | 412 | 412 | 0.00667 | 16200 | 
2 | A13 (antibody, V domains shown, Tested as full-length mAb expressed in CHO cells; also called antibody A13; L13H13) VH: QVQLVQSGAEVKKPGASVKVSCKASGYTFTTYGISWVRQAPGQGLEWMGWISAHNGNTNYAQKFQGRVTMTTDTSTSTAYMELRSLRSDDTAVYYCVRDGAVADYYYGMDVWGQGTTVTVSS VL: not shown | 86.7 | 86.7 | 0.00294 | 33900 | 
3 | A12 (antibody, V domains shown, Tested as full-length mAb expressed in CHO cells; also called antibody A12; L12H12) VH: QVQLVESGGGVVQPGRSLRLSCAASGFTFSSYGMHWVRQAPGKGLEWVAVIWYDGSNKYYADSVKGRFTISRDNSKNTLYLQMNSLRAEDSAVYYCVCNPFDYWGQGTLVTVSS VL: DIQMTQSPSSLSASVGDRVTVTCRSSQGIAHYLAWYQQKPGKVPKVLLYAASTLQSGVPSRFSGSGSGTDFTLTISSLQPEDVATYYCQKYNSAPYTFGQGTKLEIK | 5.1 | 5.05 | 0.000516 | 102000 | 3.16
4 | A25 (antibody, V domains shown, Tested as full-length mAb expressed in CHO cells; also called antibody 25; L25H25) VH: QVQLVESGGGVVQPGRSLRLSCAASGFTFSSYGMHWVRQAPGKGLEWVGVIWYDGSIKYYADSVKGRFTISRDNSMNTLNLQMNSLRAEDTAVYYCAGDILTGSFDYWGQGTLVTVSS VL: EIVLTQSPATLSLSPGERATLSCRASQSVSSYLAWYQQKPGQAPRLLIYDASNRATGIPARFSGSGSGTDFTLTISSLEPEDFAVYYCQQRNNWPYTFGQGTKLEIK | 792 | 792 | 0.0579 | 73100 | 
5 | A18 (antibody, V domains shown, Tested as full-length mAb expressed in CHO cells; also called antibody 18; L18H18) VH: QVQLVQSGTEVKKPGASVKVSCQASGYTFTSYDISWVRRAPGQGLEWMGWISAYNGNTNYAQKLQGRVTLTTDTSTSTAYMELRSLRSDDTAVYYCARRYYDILTEGGYYYVLDVWGQGTTVTVSS VL: AIRMTQSPSSFSASTGDRVTITCRASQGISSYLAWYQQKPGKAPTLLIYAASTLQSGVPSRFSGSGSGTDFTLTISCLQSEDFATYYCQQYYSDPPTFGQGTKVEIK | 18.4 | 18.4 | 0.00228 | 124000 | 
6 | A20 (antibody, V domains shown, Tested as full-length mAb expressed in CHO cells; also called antibody 20; L20H20) VH: EVQLVESGGGLVQPGGSLRLSCAASGFTFSFYDMHWVRQAKGKGLEWVSAIGTAGDTYYPGSVKGRFTISRENAKNSLYLQMNSLRAGDTAVYYCARGYCSTTNCFADYFDYWGQGTLVTVSS VL: DIQLTQSPSFLSASVGDRVTITCRASQGISNYLAWYQQKPGKAPKLLIYAASTLQSGVPSRFSGSGSGTEFTLTISSLQPEDFATYYCHQLNSFPLTFGGGTKVEIK | 148 | 148 | 0.00191 | 13000 | 
7 | A21 (antibody, V domains shown, Tested as full-length mAb expressed in CHO cells; also called antibody 21; L21H21) VH: QVQLVQSGAEVKKPGASVKVSCKASGYTFTSYYMHWVRQAPGQGLEWMGIINPSGSSTSYAQKFQGRVTMTRDTSTSTVYMELSSLRSEDTAVYYCARYGVWGSYRSLDYWGQGTLVTVSS VL: AIQMTQSPSSLSASVGDRVTITCRASQGIRNELGWYQQKPGKAPKLLICAASSLQSGVPSRFSGSGSGTDFTLTISSLQPEDFATYYCLQDYIYPYTFGQGTKLEIK | 13 | 13 | 0.00142 | 110000 | 
8 | A15 (antibody, V domains shown, Tested as full-length mAb expressed in CHO cells; also called antibody 15; L15H15) VH: QVQLQESGPGLVKPSETLSLTCTVSGGSISSYYWSWIRQPPGKGLEWIGYIYYSGSTNYNPSLKSRVTISEDTSKNQFSLKLSSVTAADTAVYYCARDEGATFFDYWGQGTLVTVSS VL: not shown | 8.3 | 8.32 | 0.00195 | 235000 | 
